Molecular target: T1, human insulin receptor extracellular domain (HIR ECD) (human, UniProt P06213 28-956, limits assumed)
T1 construct: extracellular domain
Assay: competitive ligand binding assay, displacement of [125I] murine HIRMAb from plated HIR ECD, Scatchard analysis
Experimental: CHO cells permanently transfected with the HIR ECD were grown in serum free media (SFM), and the HIR ECD was purified with a wheat germ agglutinin affinity column.

Ki: 0.63 nM
B1: chimeric HIRMAb (chimeric monoclonal antibody to the human insulin receptor) (antibody, human IgG1, kappa)
heavy: not shown
light: DIQMTQSPSSLSASLGERVSLTCRASQDIGGNLYWLQQGPDGTIKRLIYATSSLDSGVPKRFSGSRSGSDYSLTISSLESEDFVDYYCLQYSSSPWTFGGATKMEIKRTVAAPSVFIFPPSDEQLKSGTASVVCLLNNFYPREAKVQWKVDNALQSGNSQESVTEQDSKDSTYSLSSTLTLSKADYEKHKVYACEVTHQGLSSPVTKSFNRGEC
notes: chimeric human IgG1/kappa

— patent US20070082380A1 (ARMAGEN TECHNOLOGIES, published 2007)
